Source: patent publication US20200317768A1 (published 2020)
Where a chain is given by its changes, count along the chain named. Names and notes keep the numbering of the source.

T1: cynomolgus monkey FcγRIIa1 extracellular domain, His-tagged (cynomolgus monkey)
T1 construct: also called cyno FcγRIIa1; cynoFcgRIIa1
T1 chain: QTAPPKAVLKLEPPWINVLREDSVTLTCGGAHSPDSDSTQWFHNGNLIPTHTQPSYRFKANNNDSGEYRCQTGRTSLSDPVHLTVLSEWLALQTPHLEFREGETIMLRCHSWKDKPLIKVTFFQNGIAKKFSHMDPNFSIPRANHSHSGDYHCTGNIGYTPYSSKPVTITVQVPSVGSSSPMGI

T2: cynomolgus monkey FcγRIIa2 extracellular domain, His-tagged (cynomolgus monkey)
T2 construct: also called cyno FcγRIIa2; cynoFcgRIIa2
T2 chain: T1 chain with P95T, T121A, I127K, A128S, K130N, D135N, R142Q

T3: cynomolgus monkey FcγRIIa3 extracellular domain, His-tagged (cynomolgus monkey)
T3 construct: also called cyno FcγRIIa3; cynoFcgRIIa3
T3 chain: T1 chain with P95T, T121A, A128S, H133P, D135N

T4: cynomolgus monkey FcγRIIb extracellular domain, His-tagged (cynomolgus monkey)
T4 construct: also called cyno FcγRIIb; cynoFcγRIIb
T4 chain: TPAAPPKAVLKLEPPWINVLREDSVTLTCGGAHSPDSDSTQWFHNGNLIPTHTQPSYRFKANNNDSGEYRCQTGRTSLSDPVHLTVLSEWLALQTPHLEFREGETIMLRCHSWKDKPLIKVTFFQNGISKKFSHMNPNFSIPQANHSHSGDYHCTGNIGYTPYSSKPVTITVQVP

T5: human FcγRIIaH extracellular domain, His-tagged (human, UniProt P12318 34-217)
T5 construct: also called human FcγRIIa (type H); FcgRIIaH
T5 sequence: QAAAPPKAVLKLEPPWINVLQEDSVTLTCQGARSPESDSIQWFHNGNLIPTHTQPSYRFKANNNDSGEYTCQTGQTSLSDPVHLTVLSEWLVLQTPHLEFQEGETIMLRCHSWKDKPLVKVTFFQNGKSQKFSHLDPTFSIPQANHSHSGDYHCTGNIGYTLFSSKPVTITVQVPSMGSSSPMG

T6: human FcγRIIaR extracellular domain, His-tagged (human, UniProt P12318 34-217)
T6 construct: also called human FcγRIIa (type R); FcgRIIaR
T6 chain: T5 sequence with H134R

T7: human FcγRIIb extracellular domain, His-tagged (human, UniProt P31994 43-217)
T7 construct: also called FcgRIIb (human)
T7 sequence: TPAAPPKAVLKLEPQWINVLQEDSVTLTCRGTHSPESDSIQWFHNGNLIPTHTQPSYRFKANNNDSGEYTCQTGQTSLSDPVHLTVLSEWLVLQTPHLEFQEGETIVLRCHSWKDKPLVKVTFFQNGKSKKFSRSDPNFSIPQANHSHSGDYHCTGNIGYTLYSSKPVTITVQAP

T8: human FcγRIIaR extracellular domain, C-terminal His-tag (human, UniProt P12318 34-217)
T8 construct: also called human FcγRIIa (type R); FcgRIIaR; not shown: His-tag added to C-terminus
T8 chain: T5 sequence with H134R

B1: M103205H795-MY045/M103202L889-SK1 (antibody, human IgG1, kappa)
heavy: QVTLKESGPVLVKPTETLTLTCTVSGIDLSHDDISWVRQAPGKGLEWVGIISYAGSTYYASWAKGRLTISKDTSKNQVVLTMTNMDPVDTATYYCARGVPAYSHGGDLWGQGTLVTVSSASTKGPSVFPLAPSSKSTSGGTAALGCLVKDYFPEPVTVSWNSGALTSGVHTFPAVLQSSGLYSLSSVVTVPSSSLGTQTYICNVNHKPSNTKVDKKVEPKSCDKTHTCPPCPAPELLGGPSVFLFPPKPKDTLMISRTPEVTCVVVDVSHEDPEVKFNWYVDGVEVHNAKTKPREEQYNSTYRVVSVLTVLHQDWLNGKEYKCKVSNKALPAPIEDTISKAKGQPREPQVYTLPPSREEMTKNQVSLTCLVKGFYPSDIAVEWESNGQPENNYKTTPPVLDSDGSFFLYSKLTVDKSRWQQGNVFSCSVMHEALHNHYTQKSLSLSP
light: DIVMTQSPATLSLSPGERATLSCTSSQSVYHANWLSWFQQKPGQPPKLLIYWASTLAYGVPSRFSGSGSGTDFTLTISSLQPEDAATYYCAGGYGGGRYAFGQGTKVEIKRTVAAPSVFIFPPSDEQLKSGTASVVCLLNNFYPREAKVQWKVDNALQSGNSQESVTEQDSKDSTYSLSSTLTLSKADYEKHKVYACEVTHQGLSSPVTKSFNRGEC
notes: Substitution put into M103205H795-SG1
B2: M103205H795-MY196/M103202L889-SK1 (antibody, human IgG1, kappa)
heavy: not shown
light: B1 light
notes: as for B1
B3: M103205H795-MY124/M103202L889-SK1 (antibody, human IgG1, kappa)
heavy: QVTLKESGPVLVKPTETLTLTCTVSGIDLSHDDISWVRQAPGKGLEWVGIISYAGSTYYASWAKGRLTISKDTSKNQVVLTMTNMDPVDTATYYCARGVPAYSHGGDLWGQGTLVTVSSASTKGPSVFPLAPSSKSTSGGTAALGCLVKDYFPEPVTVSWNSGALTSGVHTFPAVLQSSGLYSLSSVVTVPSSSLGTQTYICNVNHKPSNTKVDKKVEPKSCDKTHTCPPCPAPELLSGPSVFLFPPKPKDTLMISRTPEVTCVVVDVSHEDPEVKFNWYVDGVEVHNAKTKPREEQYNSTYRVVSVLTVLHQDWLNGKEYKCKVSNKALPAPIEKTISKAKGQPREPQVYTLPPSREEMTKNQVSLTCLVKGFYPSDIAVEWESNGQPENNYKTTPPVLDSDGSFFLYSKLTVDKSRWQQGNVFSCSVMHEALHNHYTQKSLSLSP
light: B1 light
notes: as for B1
B4: M103205H795-MY048/M103202L889-SK1 (P271D) (antibody, human IgG1, kappa)
heavy: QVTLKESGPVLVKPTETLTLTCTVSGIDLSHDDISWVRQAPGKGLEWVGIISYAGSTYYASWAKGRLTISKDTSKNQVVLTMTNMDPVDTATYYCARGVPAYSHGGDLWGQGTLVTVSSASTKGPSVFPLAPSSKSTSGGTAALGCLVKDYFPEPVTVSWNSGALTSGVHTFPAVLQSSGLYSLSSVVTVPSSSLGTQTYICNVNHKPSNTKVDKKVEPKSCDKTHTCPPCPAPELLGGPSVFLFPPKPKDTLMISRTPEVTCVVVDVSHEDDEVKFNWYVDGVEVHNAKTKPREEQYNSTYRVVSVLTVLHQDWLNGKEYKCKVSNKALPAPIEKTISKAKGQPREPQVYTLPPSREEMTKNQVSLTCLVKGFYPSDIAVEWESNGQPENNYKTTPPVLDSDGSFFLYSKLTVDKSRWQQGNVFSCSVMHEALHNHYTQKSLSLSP
light: B1 light
notes: Here the P271D molecule is meant; Put into M103205H795-SG1
B5: M103205H795-MY065/M103202L889-SK1 (antibody, human IgG1, kappa)
heavy: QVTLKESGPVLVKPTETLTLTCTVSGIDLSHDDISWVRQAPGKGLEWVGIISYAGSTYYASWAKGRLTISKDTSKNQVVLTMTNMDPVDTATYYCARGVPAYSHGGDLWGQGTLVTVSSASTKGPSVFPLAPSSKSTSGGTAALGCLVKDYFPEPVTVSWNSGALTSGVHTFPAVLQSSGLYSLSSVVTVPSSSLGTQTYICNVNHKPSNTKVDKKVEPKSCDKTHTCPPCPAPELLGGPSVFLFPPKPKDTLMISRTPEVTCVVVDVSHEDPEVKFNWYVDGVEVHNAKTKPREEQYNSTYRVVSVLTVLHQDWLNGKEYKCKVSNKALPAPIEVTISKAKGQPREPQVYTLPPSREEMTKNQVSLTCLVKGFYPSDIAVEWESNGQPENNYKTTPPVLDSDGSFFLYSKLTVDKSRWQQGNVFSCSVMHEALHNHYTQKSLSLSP
light: B1 light
notes: as for B1
B6: M103205H795-MY072/M103202L889-SK1 (antibody, human IgG1, kappa)
heavy: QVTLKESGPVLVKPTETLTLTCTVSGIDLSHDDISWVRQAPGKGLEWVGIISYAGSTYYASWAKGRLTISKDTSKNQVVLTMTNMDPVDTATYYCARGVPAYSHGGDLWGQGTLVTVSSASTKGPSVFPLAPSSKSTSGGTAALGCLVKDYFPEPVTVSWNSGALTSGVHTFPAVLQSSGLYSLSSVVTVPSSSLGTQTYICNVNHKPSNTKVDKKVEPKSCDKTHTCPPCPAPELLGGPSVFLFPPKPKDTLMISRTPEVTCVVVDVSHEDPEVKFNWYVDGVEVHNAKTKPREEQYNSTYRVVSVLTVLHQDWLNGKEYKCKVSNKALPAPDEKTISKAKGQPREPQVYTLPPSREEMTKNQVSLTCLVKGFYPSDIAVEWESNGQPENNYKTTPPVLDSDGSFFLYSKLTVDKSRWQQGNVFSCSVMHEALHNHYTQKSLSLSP
light: B1 light
notes: as for B1
B7: M103205H795-MY068/M103202L889-SK1 (antibody, human IgG1, kappa)
heavy: not shown
light: B1 light
notes: as for B1
B8: M103205H795-MY070/M103202L889-SK1 (antibody, human IgG1, kappa)
heavy: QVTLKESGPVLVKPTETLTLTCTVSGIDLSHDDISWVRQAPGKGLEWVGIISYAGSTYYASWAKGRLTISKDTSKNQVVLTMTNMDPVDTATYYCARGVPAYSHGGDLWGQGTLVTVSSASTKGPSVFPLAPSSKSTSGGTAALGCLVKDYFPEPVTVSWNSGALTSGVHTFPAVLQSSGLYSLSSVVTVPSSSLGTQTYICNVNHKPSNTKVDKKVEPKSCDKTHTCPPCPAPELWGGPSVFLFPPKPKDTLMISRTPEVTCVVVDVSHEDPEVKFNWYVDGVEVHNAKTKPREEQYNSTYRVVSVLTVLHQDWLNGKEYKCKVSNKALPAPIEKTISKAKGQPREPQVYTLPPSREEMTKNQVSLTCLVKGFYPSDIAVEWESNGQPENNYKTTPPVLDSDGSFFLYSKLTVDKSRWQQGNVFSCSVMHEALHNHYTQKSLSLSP
light: B1 light
notes: as for B1
B9: M103205H795-MY064/M103202L889-SK1 (antibody, human IgG1, kappa)
heavy: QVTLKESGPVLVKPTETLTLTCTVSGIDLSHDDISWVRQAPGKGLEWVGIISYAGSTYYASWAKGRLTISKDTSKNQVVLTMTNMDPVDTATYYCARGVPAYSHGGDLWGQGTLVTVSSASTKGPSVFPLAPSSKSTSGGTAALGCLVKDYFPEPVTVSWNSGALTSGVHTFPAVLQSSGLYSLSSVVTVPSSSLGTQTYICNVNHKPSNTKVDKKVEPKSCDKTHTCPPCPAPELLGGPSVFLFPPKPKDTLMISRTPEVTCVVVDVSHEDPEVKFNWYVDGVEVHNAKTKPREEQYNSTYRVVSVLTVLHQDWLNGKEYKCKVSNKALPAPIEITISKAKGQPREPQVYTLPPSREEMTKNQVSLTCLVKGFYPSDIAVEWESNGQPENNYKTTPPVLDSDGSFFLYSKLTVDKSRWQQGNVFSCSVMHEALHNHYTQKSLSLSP
light: B1 light
notes: as for B1
B10: M103205H795-MY069/M103202L889-SK1 (antibody, human IgG1, kappa)
heavy: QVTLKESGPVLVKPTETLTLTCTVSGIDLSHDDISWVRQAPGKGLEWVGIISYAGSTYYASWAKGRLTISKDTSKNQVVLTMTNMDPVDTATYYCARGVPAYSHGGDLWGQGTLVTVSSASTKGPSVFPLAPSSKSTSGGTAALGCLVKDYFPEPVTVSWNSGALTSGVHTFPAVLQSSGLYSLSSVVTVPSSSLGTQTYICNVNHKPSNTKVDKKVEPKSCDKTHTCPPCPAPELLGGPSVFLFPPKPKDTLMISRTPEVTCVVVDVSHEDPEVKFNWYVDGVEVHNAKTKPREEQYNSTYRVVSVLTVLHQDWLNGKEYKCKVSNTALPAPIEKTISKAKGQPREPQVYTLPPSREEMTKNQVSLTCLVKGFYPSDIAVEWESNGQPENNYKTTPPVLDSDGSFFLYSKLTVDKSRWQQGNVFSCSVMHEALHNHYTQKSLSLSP
light: B1 light
notes: as for B1
B11: M103205H795-MY073/M103202L889-SK1 (antibody, human IgG1, kappa)
heavy: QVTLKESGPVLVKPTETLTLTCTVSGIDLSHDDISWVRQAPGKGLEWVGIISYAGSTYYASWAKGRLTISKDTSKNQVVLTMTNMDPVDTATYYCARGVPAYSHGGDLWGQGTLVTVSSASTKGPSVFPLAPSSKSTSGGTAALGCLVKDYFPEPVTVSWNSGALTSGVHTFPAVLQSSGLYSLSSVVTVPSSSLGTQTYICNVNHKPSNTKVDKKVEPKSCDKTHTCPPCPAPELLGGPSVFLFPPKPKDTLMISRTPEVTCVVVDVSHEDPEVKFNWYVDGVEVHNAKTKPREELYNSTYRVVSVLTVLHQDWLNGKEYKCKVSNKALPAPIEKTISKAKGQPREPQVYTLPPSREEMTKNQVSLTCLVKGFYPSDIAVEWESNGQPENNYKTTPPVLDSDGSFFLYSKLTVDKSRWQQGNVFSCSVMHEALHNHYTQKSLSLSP
light: B1 light
notes: as for B1
B12: M103205H795-MY063/M103202L889-SK1 (antibody, human IgG1, kappa)
heavy: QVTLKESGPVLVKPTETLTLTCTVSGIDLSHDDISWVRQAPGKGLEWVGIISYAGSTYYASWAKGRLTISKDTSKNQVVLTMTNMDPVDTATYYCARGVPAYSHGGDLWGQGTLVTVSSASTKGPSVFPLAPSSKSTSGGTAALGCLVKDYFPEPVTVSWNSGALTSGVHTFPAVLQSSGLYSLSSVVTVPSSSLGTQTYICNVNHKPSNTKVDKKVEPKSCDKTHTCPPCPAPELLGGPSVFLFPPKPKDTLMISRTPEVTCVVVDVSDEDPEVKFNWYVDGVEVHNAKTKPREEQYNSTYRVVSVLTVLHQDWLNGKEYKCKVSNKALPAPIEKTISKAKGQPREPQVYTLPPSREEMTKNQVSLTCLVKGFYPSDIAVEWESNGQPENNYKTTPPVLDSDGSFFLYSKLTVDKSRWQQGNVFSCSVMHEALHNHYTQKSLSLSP
light: B1 light
notes: as for B1
B13: M103205H795-MY071/M103202L889-SK1 (antibody, human IgG1, kappa)
heavy: not shown
light: B1 light
notes: as for B1
B14: MS_M103205H795-SG1/M103202L889-SK1 (antibody, human IgG1, kappa)
heavy: not shown
light: B1 light
notes: Parent antibody; also called MS1032LO06-SG1
B15: M103205H795-MY209/M103202L889-SK1 (antibody, human IgG1, kappa)
heavy: QVTLKESGPVLVKPTETLTLTCTVSGIDLSHDDISWVRQAPGKGLEWVGIISYAGSTYYASWAKGRLTISKDTSKNQVVLTMTNMDPVDTATYYCARGVPAYSHGGDLWGQGTLVTVSSASTKGPSVFPLAPSSKSTSGGTAALGCLVKDYFPEPVTVSWNSGALTSGVHTFPAVLQSSGLYSLSSVVTVPSSSLGTQTYICNVNHKPSNTKVDKKVEPKSCDKTHTCPPCPAPELLNGPSVFLFPPKPKDTLMISRTPEVTCVVVDVSDEDPEVKFNWYVDGVEVHNAKTKPREELYNSTYRVVSVLTVLHQDWLNGKEYKCKVSNTALPKPIEKTISKAKGQPREPQVYTLPPSREEMTKNQVSLTCLVKGFYPSDIAVEWESNGQPENNYKTTPPVLDSDGSFFLYSKLTVDKSRWQQGNVFSCSVMHEALHNHYTQKSLSLSP
light: B1 light
B16: M103205H795-MY142/M103202L889-SK1 (antibody, human IgG1, kappa)
heavy: B15 heavy with N238E, D270E, L297Q, T328K, K332A, P398M
light: B1 light
B17: M103205H795-MY229/M103202L889-SK1 (antibody, human IgG1, kappa)
heavy: B15 heavy with N238G, G239Y, T328K, P398K
light: B1 light
B18: M103205H795-MY143/M103202L889-SK1 (antibody, human IgG1, kappa)
heavy: B15 heavy with N238S, D270E, L297Q, T328K, K332A, P398M
light: B1 light
B19: M103205H795-MY219/M103202L889-SK1 (antibody, human IgG1, kappa)
heavy: B15 heavy with N238G, G239Y, L297Q, T328K
light: B1 light
B20: M103205H795-MY228/M103202L889-SK1 (antibody, human IgG1, kappa)
heavy: B15 heavy with N238G, G239Y, T328K
light: B1 light
B21: M103205H795-MY227/M103202L889-SK1 (antibody, human IgG1, kappa)
heavy: B15 heavy with N238G, G239Y, L297Q, T328K, P398K
light: B1 light
B22: M103205H795-MY213/M103202L889-SK1 (antibody, human IgG1, kappa)
heavy: B15 heavy with L297Q, T328K, P398K
light: B1 light

Molecular target: T1, cynomolgus monkey FcγRIIa1 …
Experiment: SPR, antibody captured, FcgR analyte

Kd [nM]	Binder
5700	B1
2500	B2
2600	B3
6600	B4
2300	B5
1000	B6
2100	B7
2300	B8
2400	B9
1600	B10
1200	B11
1400	B12
5000	B13

Molecular target: T2, cynomolgus monkey FcγRIIa2 …
Experiment: SPR, antibody captured, FcgR analyte

Kd [nM]	Binder
4000	B1
3000	B2
3100	B3
11000	B4
2800	B5
1200	B6
2700	B7
2500	B8
2800	B9
1600	B10
1300	B11
1500	B12
3700	B13

Molecular target: T3, cynomolgus monkey FcγRIIa3 …
Experiment: SPR, antibody captured, FcgR analyte

Kd [nM]	Binder
6800	B1
23000	B2
12000	B3
4400	B4
4200	B5
2600	B6
5700	B7
4700	B8
59000	B9
6500	B10
5100	B11
2000	B12
9200	B13

Molecular target: T4, cynomolgus monkey FcγRIIb extracellular …
Experiment: SPR, antibody captured, FcgR analyte

Kd [nM]	Binder
2200	B1
2400	B2
2200	B3
3500	B4
1300	B5
480	B6
1000	B7
1200	B8
1100	B9
730	B10
670	B11
340	B12
2500	B13

molecular target: T5, human FcγRIIaH extracellular domain, …; experiment: SPR, antibody captured, FcgR analyte

Kd [nM]	Binder
1600	B1
480	B2
140	B3
1800	B4
520	B5
250	B6
370	B7
500	B8
500	B9
440	B10
240	B11
270	B12
400	B13

Molecular target: T6, human FcγRIIaR extracellular domain, …
Experiment: SPR, antibody captured, FcgR analyte

Kd [nM]	Binder
1600	B1
1300	B2
520	B3
1200	B4
510	B5
480	B6
520	B7
740	B8
680	B9
390	B10
500	B11
210	B12
450	B13

molecular target: T7, human FcγRIIb extracellular domain, …; experiment: SPR, antibody captured, FcgR analyte

Kd [nM]	Binder
2900	B1
6200	B2
9200	B3
3000	B4
1900	B5
1500	B6
2100	B7
2600	B8
2400	B9
1600	B10
2000	B11
660	B12
8100	B13

molecular target: T9, human FcγRIIIaV extracellular domain, His-tagged (human, UniProt P08637 17-208); experiment: SPR, antibody captured, FcgR analyte
T9 construct: also called FcgRIIIaV
T9 sequence (P08637 17-208 F176V): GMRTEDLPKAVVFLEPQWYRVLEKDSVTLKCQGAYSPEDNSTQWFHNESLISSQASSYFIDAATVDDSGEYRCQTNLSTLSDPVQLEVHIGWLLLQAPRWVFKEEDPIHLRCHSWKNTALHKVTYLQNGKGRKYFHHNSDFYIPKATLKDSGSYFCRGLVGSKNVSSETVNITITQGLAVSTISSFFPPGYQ

Kd [nM]	Binder
240	B1
2200	B2
5200	B3
610	B4
230	B5
120	B6
1400	B7
700	B8
220	B9
240	B10
340	B11
160	B12
510	B13

Molecular target: T8, human FcγRIIaR extracellular domain, …
Experiment: SPR (Biacore), KD of SG1 / KD of variant;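 also: relative to parent M103205H795-SG1 carrying the SG1 human heavy chain constant region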

KD fold (SG1 = 1) [fold]	Binder
1	B14
1.3	B15
6.5	B16
13	B17
13.3	B18
6.9	B19
6.5	B20
17.7	B21
1.6	B22
